For data set [1], the target named is T1, Zur (zinc uptake regulator) (Corynebacterium diphtheriae (strain of …, UniProt Q6NG23 1-142)).
T1 sequence: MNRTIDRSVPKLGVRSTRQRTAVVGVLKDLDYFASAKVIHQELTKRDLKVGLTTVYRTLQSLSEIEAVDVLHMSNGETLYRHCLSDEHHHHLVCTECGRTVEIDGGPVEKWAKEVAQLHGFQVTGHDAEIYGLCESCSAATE
The experiment in a line: EMSA; 5 uM ZnCl2; 100 nM Zur, 1 nM oligo duplex; 10 mM Tris pH 7.5, 55 mM KCl, 1 mM DTT, 10% glycerol, 0.05% NP-40, 100 ug/ml BSA, 0.03 ug/ml salmon sperm DNA, 5 uM ZnCl2 (or Zn/EDTA titration 0.25-250 uM); temperature not stated. As to conditions: protein: recombinant; tags: His-tag (pET30a); chain copies: 2; label: 5' biotin on strand 1; blunt.

Data set [2] has as its target T1, Zur (zinc uptake regulator). Kind of data set: EMSA; 250 uM EDTA; 100 nM Zur, 1 nM oligo duplex; 10 mM Tris pH 7.5, 55 mM KCl, 1 mM DTT, 10% glycerol, 0.05% NP-40, 100 ug/ml BSA, 0.03 ug/ml salmon sperm DNA, 5 uM ZnCl2 (or Zn/EDTA titration 0.25-250 uM); temperature not stated. As to conditions: protein: recombinant; tags: His-tag (pET30a); chain copies: 2; label: 5' biotin on strand 1; blunt. (In EMSA bound probe runs differently from free probe, usually more slowly.)

B1: cztA (dip1101) site 2 (dsDNA)
DNA 1: GGGCATAAATGAAAATATGGGCTATGCTGCCCC
DNA 2: GGGGCAGCATAGCCCATATTTTCATTTATGCCC
On to B1, for which the binding result in data set [1] is listed as “binds”.

B2: cztA (dip1101) site 1 (dsDNA)
DNA 1: GGGTATCAGTACACATTATTTTCAATAAAGCCC
DNA 2: GGGCTTTATTGAAAATAATGTGTACTGATACCC
Regarding B2, the binding result in data set [1] is on record as “binds”.

B3: iutA (dip0169) DtxR binding site (dsDNA)
DNA 1: CCCTGTTTTAGCTTAGCCCTAGCTAATTTGGGG
DNA 2: CCCCAAATTAGCTAGGGCTAAGCTAAAACAGGG
Regarding B3, the binding result in data set [1] is given as “no binding”.

B4: adhA (dip2114) site (dsDNA)
DNA 1: CCCTTCTAATGGTACCTATTTTCAATAGGTGGG
DNA 2: CCCACCTATTGAAAATAGGTACCATTAGAAGGG
For the molecule B4, the binding result in data set [2] is on record as “binds”.

B5: cmrA (dip2325) site (dsDNA)
DNA 1: CCCAATTATCGGTAATTATTTTCATTAAAAGGG
DNA 2: CCCTTTTAATGAAAATAATTACCGATAATTGGG
B5: the binding result in data set [2] is reported as “binds”.

For the origin of these results see PMC6711530, “Identification of zinc and Zur-regulated genes in Corynebacterium diphtheriae”.
